“Also recorded” adds a separate entry of the source.
Tests used:
human-TRPV1 = human-TRPV1 (Homo sapiens, UniProt Q8NER1); format: cell-based; conditions: capsaicin 3 μM
HEK cells = format: cell-based, human; conditions: 0.1% , positive control
Source text: FIGS. 6A-6J: Ultrasound stimulation at 2.5 MPa is safe as assessed by intracellular uptake of propidium iodide. FIG. 6A: Image showing bright field (BF) image for GCaMP6f-HEK cells, and the corresponding GFP channel (FIG. 6B) and propidium iodide channel (FIG. 6C) before ultrasound stimulation. Multiple trials with ultrasound stimulation at 2.5 MPa 100 ms had no effect on the intracellular levels of propidium iodide (FIG. 6D) n=3 stims. FIG. 6E: Image showing HEK cells used for the positive control, including GFP channel (FIG. 6F) and propidium iodide channel before treatment (FIG. 6G). […] Time course for the propidium iodide signal for an ultrasound stimulated cell highlighted in FIG. 6A, shown in FIG. 6I, and for a cell treated with […] highlighted in FIG. 6E, shown in FIG. 6J. Scale bar, 20 μm.
To facilitate rapid screening of ultrasound-triggered cellular responses, an optical imaging setup was aligned with a custom designed transducer. In particular, a single-crystal 6.91 MHz lithium niobate transducer (FIG. 1A) that lacks hysteresis and generates minimal heat as it converts electrical input into mechanical energy was designed. Such a transducer reduced ultrasound-triggered temperature changes. […]

[1] = tested on: layer V motor cortical neurons; assay: c-fos expression in cortical neurons after ultrasound in vivo; parameters: species or system mouse
[2] = tested on: mouse primary cortical neurons; assay: GCaMP6f calcium imaging of primary cortical neurons under ultrasound or AITC; format: cell-based
[3] = Rotarod motor learning task; conditions: cortical expression; 5 days
[4] = tested on: Human Embryonic Kidney 293T (HEK) cells; assay: Ultrasound-evoked GCaMP6f calcium response of HEK cells transfected with candidate channels (screen and TRPA1 variants); format: cell-based; conditions: for Response to ultrasound stimulation (cells activated, GCaMP6f): transfected GCaMP6f HEK cells, 6.91 MHz, screen at 100 msecs, 1.5 MPa
excitable HEK cells = assay: Patch-clamp electrophysiology of excitable HEK cells expressing TRPA1 channel polypeptides under ultrasound; format: cell-based, human
rat primary neurons = assay: Whole-cell patch clamp (voltage and current clamp) of primary neurons under ultrasound; format: cell-based
[5] = hsTRPA1-expressing primary neurons, ultrasound

Chain of human-TRPV1 (Q8NER1 whole entry): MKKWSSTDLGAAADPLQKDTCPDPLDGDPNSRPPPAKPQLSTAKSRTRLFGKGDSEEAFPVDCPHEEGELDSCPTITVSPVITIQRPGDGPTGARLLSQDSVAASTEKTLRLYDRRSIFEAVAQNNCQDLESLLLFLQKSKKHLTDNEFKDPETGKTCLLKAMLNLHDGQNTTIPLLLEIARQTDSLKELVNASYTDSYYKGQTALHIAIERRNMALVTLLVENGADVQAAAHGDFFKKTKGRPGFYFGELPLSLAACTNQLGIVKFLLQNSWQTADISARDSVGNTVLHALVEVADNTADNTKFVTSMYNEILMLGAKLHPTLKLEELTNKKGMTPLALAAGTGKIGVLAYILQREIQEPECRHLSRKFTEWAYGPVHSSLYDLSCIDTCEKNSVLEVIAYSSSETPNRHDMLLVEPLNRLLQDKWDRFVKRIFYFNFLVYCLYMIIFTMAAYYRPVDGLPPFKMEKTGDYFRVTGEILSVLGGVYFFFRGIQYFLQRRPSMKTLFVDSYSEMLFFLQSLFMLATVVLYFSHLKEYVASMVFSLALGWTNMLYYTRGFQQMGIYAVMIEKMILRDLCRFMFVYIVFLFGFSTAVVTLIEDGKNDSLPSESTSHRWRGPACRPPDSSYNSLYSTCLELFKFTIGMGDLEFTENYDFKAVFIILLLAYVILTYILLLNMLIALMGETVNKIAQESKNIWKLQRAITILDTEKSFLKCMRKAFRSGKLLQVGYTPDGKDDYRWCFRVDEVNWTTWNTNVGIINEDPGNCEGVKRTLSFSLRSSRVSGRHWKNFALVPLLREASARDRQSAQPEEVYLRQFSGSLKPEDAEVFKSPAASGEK

Molecule: COc1cc(CNC(=O)CCCC/C=C/C(C)C)ccc1O [capsaicin]
- Response of HEK cells expressing human TRPV1 to compound (human-TRPV1): respond

Molecule: Triton-X
- Intracellular propidium iodide (HEK cells): significant increase of intracellular propidium iodide

B1: hsTRPA1: human TRPA1 channel protein Clone 63 (non-mutated/WT), SEQ ID NO: 4; RefSeq XP_016869435.1 (protein, listed as Homo sapiens)
chain: MKRSLRKMWRPGEKKEPQGVVYEDVPDDTEDFKESLKVVFEGSAYGLQNFNKQKKLKRCDDMDTFFLHYAAAEGQIELMEKITRDSSLEVLHEMDDYGNTPLHCAVEKNQIESVKFLLSRGANPNLRNFNMMAPLHIAVQGMNNEVMKVLLEHRTIDVNLEGENGNTAVIIACTTNNSEALQILLKKGAKPCKSNKWGCFPIHQAAFSGSKECMEIILRFGEEHGYSRQLHINFMNNGKATPLHLAVQNGDLEMIKMCLDNGAQIDPVEKGRCTAIHFAATQGATEIVKLMISSYSGSVDIVNTTDGCHETMLHRASLFDHHELADYLISVGADINKIDSEGRSPLILATASASWNIVNLLLSKGAQVDIKDNFGRNFLHLTVQQPYGLKNLRPEFMQMQQIKELVMDEDNDGCTPLHYACRQGGPGSVNNLLGFNVSIHSKSKDKKSPLHFAASYGRINTCQRLLQDISDTRLLNEGDLHGMTPLHLAAKNGHDKVVQLLLKKGALFLSDHNGWTALHHASMGGYTQTMKVILDTNLKCTDRLDEDGNTALHFAAREGHAKAVALLLSHNADIVLNKQQASFLHLALHNKRKEVVLTIIRSKRWDECLKIFSHNSPGNKCPITEMIEYLPECMKVLLDFCMLHSTEDKSCRDYYIEYNFKYLQCPLEFTKKTPTQDVIYEPLTALNAMVQNNRIELLNHPVCKEYLLMKWLAYGFRAHMMNLGSYCLGLIPMTILVVNIKPGMAFNSTGIINETSDHSEILDTTNSYLIKTCMILVFLSSIFGYCKEAGQIFQQKRNYFMDISNVLEWIIYTTGIIFVLPLFVEIPAHLQWQCGAIAVYFYWMNFLLYLQRFENCGIFIVMLEVILKTLLRSTVVFIFLLLAFGLSFYILLNLQDPFSSPLLSIIQTFSMMLGDINYRESFLEPYLRNELAHPVLSFAQLVSFTIFVPIVLMNLLIGLAVGDIAEVQKHASLKRIAMQVELHTSLEKKLPLWFLRKVDQKSTIVYPNKPRSGGMLFHIFCFLFCTGEIRQEIPNADKSLEMEILKQKYRLKDLTFLLEKQHELIKLIIQKMEIISETEDDDSHCSFQDRFKKEQMEQRNSRWNTVLRAVKAKTHHLEP
- c-fos expression in the auditory cortex after ultrasound ([1]; hsTRPA1-expressing mice): not detected
- Number of c-fos positive cells in cortical motor neurons after ultrasound ([1]; hsTRPA1-expressing transgenic mice versus GFP): significantly increased the number of c-fos positive cells
- Ultrasound-triggered intracellular calcium in expressing neurons versus CRE control ([2]; E18 mouse primary cortical neurons, AAV infected, 100 ms, 2.5 MPa): significant increase in intracellular calcium
- Response duration [2, 5]: 2 to 30 s
- Response latency after stimulus onset (majority of neurons) [2, 5]: 500 to 900 ms
- Repeated ultrasound stimulation: cell health and calcium flux ([2]; repetitive 100 ms, 2.5 MPa ultrasound stimulation): without apparent deleterious effects on cell health or a substantial decrement in calcium flux
- Ability to learn the rotarod task versus GFP-expressing animals [3]: comparable ability to learn the rotarod task
- Responsiveness to ultrasound stimulation among TRPA channels from different species (% of cells showing a response) ([4]; HEK cells, 100 ms ultrasound pulse at 3 MPa 6.91 MHz): the most responsive to ultrasound stimulation
- Response to ultrasound stimulation (cells activated, GCaMP6f) [4]: robust responses; also recorded: selectively activated by ultrasound stimulation in a pressure- and duration-dependent manner
- Response to ultrasound stimulation (cells activated, GCaMP6f) ([4]; listed as human homolog): the best candidate
- Electrical properties (I-V curve) versus dTom controls (excitable HEK cells): no significant disruptions in their electrical properties
- Basal rate of activity before ultrasound versus dTom controls (excitable HEK cells; cell-attached): higher basal rates of activity
- Inward currents in response to ultrasound versus dTom controls (excitable HEK cells; cell-attached): significantly larger and more numerous
- Electrophysiological responses to ultrasound versus GFP control (excitable HEK cells; patch clamp assay): Significant electrophysiological responses to ultrasound
- Ultrasound-evoked action potentials in assayed neurons (rat primary neurons; current clamp): all assayed hsTRPA1-expressing neurons showed ultrasound-evoked action potentials
- Lowest ultrasound pressure triggering action potentials (rat primary neurons; current clamp, 6.91 MHz): 0.2 MPa
- Current responses to ultrasound in voltage clamp (rat primary neurons; whole-cell, within a few milliseconds of ultrasound stimulation, 0.25 MPa range): > 400 pA

Reference: US20230263891A1, “SONOGENETIC STIMULATION OF CELLS EXPRESSING TRPA1” (Salk Institute for Biological Studies, priority 2020, published 2023)
